Data: paper doi:10.1101/2020.09.09.273011

Assays:
[1] = target: ΔEGF/Lam_Celsr3 (Celsr3-Flag lacking all the EGF repeats and Laminin domains) (mouse) (UniProt Q91ZI0); assay: co-IP
[2] = target: ΔLaminin G1_Celsr3 (Celsr3-Flag lacking the Laminin G1 domain) (mouse) (UniProt Q91ZI0); assay: co-IP

B1: mouse Frizzled3 (Frizzled3-HA) (receptor)
chain: HSLFSCEPITLRMCQDLPYNTTFMPNLLNHYDQQTAALAMEPFHPMVNLDCSRDFRPFLCALYAPICMEYGRVTLPCRRLCQRAYSECSKLMEMFGVPWPEDMECSRFPDCDEPYPRLVDLNLVGDPTEGAPVAVQRDYGFWCPRELKIDPDLGYSFLHVRDCSPPCPNMYFRREELSFARYFIGLISIICLSATLFTFLTFLIDVTRFRYPERPIIFYAVCYMMVSLIFFIGFLLEDRVACNASSPAQYKASTVTQGSHNKACTMLFMVLYFFTMAGSVWWVILTITWFLAAVPKWGSEAIEKKALLFHASAWGIPGTLTIILLAMNKIEGDNISGVCFVGLYDVDALRYFVLAPLCLYVVVGVSLLLAGIISLNRVRIEIPLEKENQDKLVKFMIRIGVFSILYLVPLLVVIGCYFYEQAYRGIWETTWIQERCREYHIPCPYQVTQMSRPDLILFLMKYLMALIVGIPSIFWVGSKKTCFEWASFFHGRRKKEIVNESRQVLQEPDFAQSLLRDPNTPIIRKSRGTSTQGTSTHASSTQLAMVDDQRSKAGSVHSKVSSYHGSLHRSRDGRYTPCSYRGMEERLPHGSMSRLTDHSRHSSSHRLNEQSRHSSIRDLSNNPMTHITHGTSMNRVIEEDGTSA
- percent reduction of the interaction against wild type Celsr3 [1]: 68%
- percent reduction of the interaction against wild type Celsr3 [2]: 66%
